Consider one molecule from patent US10705076.

Assay [1] deals with HLA class II antigens (HLA-DR, HLA-DQ and HLA-DP). As to the kind of experiment: Boltzmann sigmoid fit of the Luminex titration curve, lower asymptote.
Assay [2] has the same target. As to the kind of experiment: Luminex dose/response, mean over 5 class II bead types, antibody 5 × 10^-1 µg/ml; SD 160.45.
Assay [3] shares this target. Put plainly: Luminex dose/response, mean over 5 class II bead types, antibody 2 × 10^0 µg/ml; SD 167.
The target is the same in assay [4]. As to the kind of experiment: Boltzmann sigmoid fit of the Luminex titration curve, upper asymptote.
Assay [5] has the same target. As to the kind of experiment: Luminex dose/response, mean over 5 class II bead types; SD 298.79.
Assay [6] shares this target. As to the kind of experiment: Luminex dose/response, mean over 5 class II bead types, antibody 3.13 × 10^-2 µg/ml; SD 273.56.
The target is the same in assay [7]. As to the kind of experiment: Luminex dose/response, mean over 5 class II bead types, antibody 5 × 10^-4 µg/ml; SD 29.6.
Assay [8] shares this target. Put plainly: Luminex dose/response, mean over 5 class II bead types, antibody 7.8 × 10^-3 µg/ml; SD 145.09.
Assay [9] has the same target. Put plainly: Luminex titration on Labscreen Mixed class II beads; concentration at 50% of (MAX - MIN).
Assay [10] shares this target. As to the kind of experiment: Luminex dose/response, mean over 5 class II bead types, antibody 2 × 10^-3 µg/ml; SD 72.15.
For assay [11] the target is unchanged. As to the kind of experiment: Luminex, each Labscreen Mixed class II bead type, antibody at 2 µg/ml; SD approximately 700.

B1: monoclonal chimeric immunoglobulin Hu-IgG1 K [F3.3] (antibody, V domains shown)
VH: EVKLEESGGGLVQPGGSMKLSCVASGFTFSNSWMNWVRQSPEKGLEWVAEIRLKSNNYATRYAESVKGRFTISRDDSKSSVYLQMNNLRSEDTAIYYCTPLSYSFDYWGQGTTVTVST
VL: QIVLTQSPAIMSASPGEKVTMTCSASSIVRYMYWFQQKPGSSPRLLIYDTSSLSSGVPVRFSGSGSGTSYSLTISRMEAEDAATYFCQQWSSYPLTFGGGTKLEIKR
As usually defined, the EC50 is the concentration at which the effect is half-maximal. Turning to B1, in assay [1], the MIN (fluorescence units) is 88. Further, the Average (fluorescence intensity) (fluorescence units) in assay [2] was found to be 22800; in assay [3], 23600; in assay [5], 18000; in assay [6], 9130; in assay [7], 316; in [8], 3520. The Average (fluorescence intensity) (fluorescence units) in assay [10] came to 1090. Further, the MAX (fluorescence units) in assay [4] was 24600. In [9], the EC50 is 0.05 µg/mL. The same molecule came in with a fluorescence (average fluorescence units) in [11] of 22000.
